Values of other authors, collected in article PMC7590224.

System: hLarp7 xRRM domain (human)
Details: No direct binding assays in this paper (only in vivo E. coli suppressor tRNA reporter assays, left out); conditions of the cited Kd values not given

Row | Substance | Kd [nM]
1 | 7SK RNA stem-loop 4 (SL4) | 129
2 | 7SK SL4 U311A | 51
